± gives the standard deviation of the averaged measurements.
Test: total protein half-life in vivo (active degradation + dilution); higher = more stable protein
[1] = E. coli NCM3722 delta-clpP delta-lon delta-hslV, growth: N-lim chemostat, doubling time 6 h
[2] = E. coli NCM3722 delta-clpP, growth: N-lim chemostat, doubling time 6 h
[3] = E. coli NCM3722 delta-hslV, growth: N-lim chemostat, doubling time 6 h
[4] = E. coli NCM3722 delta-lon, growth: N-lim chemostat, doubling time 6 h
[5] = E. coli NCM3722 delta-smpB, growth: N-lim chemostat, doubling time 6 h
[6] = wild type E. coli NCM3722, growth: C-lim chemostat, doubling time 3 h
[7] = wild type E. coli NCM3722, growth: C-lim chemostat, doubling time 6 h
[8] = wild type E. coli NCM3722, growth: C-lim chemostat, doubling time 12 h
[9] = wild type E. coli NCM3722, growth: N-lim chemostat, doubling time 6 h
[10] = wild type E. coli NCM3722, growth: N-lim chemostat, doubling time 12 h
[11] = wild type E. coli NCM3722, growth: P-lim chemostat, doubling time 6 h
[12] = wild type E. coli NCM3722, growth: P-lim chemostat, doubling time 12 h

Sequence	total protein half-life in vivo [1]	total protein half-life in vivo [2]	total protein half-life in vivo [3]	total protein half-life in vivo [4]	total protein half-life in vivo [5]	total protein half-life in vivo [6]	total protein half-life in vivo [7]	total protein half-life in vivo [8]	total protein half-life in vivo [9]	total protein half-life in vivo [10]	total protein half-life in vivo [11]	total protein half-life in vivo [12]
MYYPFVRKALFQLDPERAHEFTFQQLRRITGTPFEALVRQKVPAKPVNCMGLTFKNPLGLAAGLDKDGECIDALGAMGFGSIEIGTVTPRPQPGNDKPRLFRLVDAEGLINRMGFNNLGVDNLVENVKKAHYDGVLGINIGKNKDTPVEQGKDDYLICMEKIYAYAGYIAINISSPNTPGLRTLQYGEALDDLLTAIKNKQNDLQAMHHKYVPIAVKIAPDLSEEELIQVADSLVRHNIDGVIATNTTLDRSLVQGMKNCDQTGGLSGRPLQLKSTEIIRRLSLELNGRLPIIGVGGIDSVIAAREKIAAGASLVQIYSGFIFKGPPLIKEIVTHI [P0A7E1]	6.89 ± 0.98 h	6.3 ± 1.1 h	6.7 ± 0.85 h	6.48 ± 0.29 h	6.46 ± 0.65 h	3.04 ± 0.24 h	5.72 ± 0.16 h	13.1 ± 0.45 h	6.26 ± 0.34 h	12.5 ± 0.72 h	6.03 ± 0.28 h	14.2 ± 1.6 h
MNLSLRRSTSALLASSLLLTIGRGATLPFMTIYLSRQYSLSVDLIGYAMTIALTIGVVFSLGFGILADKFDKKRYMLLAITAFASGFIAITLVNNVTLVVLFFALINCAYSVFATVLKAWFADNLSSTSKTKIFSINYTMLNIGWTIGPPLGTLLVMQSINLPFWLAAICSAFPMLFIQIWVKRSEKIIATETGSVWSPKVLLQDKALLWFTCSGFLASFVSGAFASCISQYVMVIADGDFAEKVVAVVLPVNAAMVVTLQYSVGRRLNPANIRALMTAGTLCFVIGLVGFIFSGNSLLLWGMSAAVFTVGEIIYAPGEYMLIDHIAPPEMKASYFSAQSLGWLGAAINPLVSGVVLTSLPPSSLFVILALVIIAAWVLMLKGIRARPWGQPALC						1.77 h						
MMTTILTIHVPSTPGRAWNMLVALQAGNIVARYAKLHLYDAFAIQESRRVDAGNEIAPLLEVEGMKVGLMTCYDLRFPELALAQALQGAEILVLPAAWVRGPLKEHHWSTLLAARALDTTCYMVAAGECGNKNIGQSRIIDPFGVTIAAASEMPALIMAEVTPERVRQVRAQLPVLNNRRFAPPQLL [P0DP64]	7.53 h											
MKILVDENMPYARDLFSRLGEVTAVPGRPIPVAQLADADALMVRSVTKVNESLLAGKPIKFVGTATAGTDHVDEAWLKQAGIGFSAAPGCNAIAVVEYVFSSLLMLAERDGFSLYDRTVGIVGVGNVGRRLQARLEALGIKTLLCDPPRADRGDEGDFRSLDELVQRADILTFHTPLFKDGPYKTLHLADEKLIRSLKPGAILINACRGAVVDNTALLTCLNEGQKLSVVLDVWEGEPELNVELLKKVDIGTSHIAGYTLEGKARGTTQVFEAYSKFIGHEQHVALDTLLPAPEFGRITLHGPLDQPTLKRLVHLVYDVRRDDAPLRKVAGIPGEFDKLRKNYLERREWSSLYVICDDASAASLLCKLGFNAVHHPAR	5.83 ± 1.3 h	5.47 ± 1.3 h	5.17 ± 0.28 h	5.42 ± 0.064 h	4.62 ± 0.18 h	3 ± 0.38 h	5.58 ± 0.23 h	12.6 ± 3.2 h	4.72 ± 0.047 h	8.268 ± 0.016 h	5.71 ± 0.38 h	11.1 ± 0.13 h
MSGFFQRLFGKDNKPAIARGPLGLHLNSGFTLDTLAFRLLEDELLIALPGEEFTVAAVSHIDLGGGSQIFRYYTSGDEFLQINTTGGEDIDDIDDIKLFVYEESYGISKESHWREAINAKAMGAMTLNWQEKRWQRFFNSEEPGNIEPVYMLEKVENQNHAKWEVHNFTMGYQRQVTEDTYEYLLLNGEESFNDLGEPEWLFSRALGVDIPLTSLHIIG	4.45 h		6.47 ± 1 h	> 8 h		3.22 h		12.2 h	5.26 h		6.38 h	
MKQYLIAPSILSADFARLGEDTAKALAAGADVVHFDVMDNHYVPNLTIGPMVLKSLRNYGITAPIDVHLMVKPVDRIVPDFAAAGASIITFHPEASEHVDRTLQLIKENGCKAGLVFNPATPLSYLDYVMDKLDVILLMSVNPGFGGQSFIPQTLDKLREVRRRIDESGFDIRLEVDGGVKVNNIGEIAAAGADMFVAGSAIFDQPDYKKVIDEMRSELAKVSHE [P0AG07]	5.23 ± 0.28 h	4.58 ± 0.58 h	5.6 ± 1.7 h	4.69 ± 0.12 h	4.27 ± 0.7 h	3.2 ± 0.21 h	5.43 ± 0.99 h	11.4 ± 0.82 h	4.84 ± 0.16 h	7.52 ± 0.15 h	5.72 ± 0.56 h	12 ± 0.16 h
MGGISIWQLLIIAVIVVLLFGTKKLGSIGSDLGASIKGFKKAMSDDEPKQDKTSQDADFTAKTIADKQADTNQEQAKTEDAKRHDKEQV	4.809 ± 0.026 h	4.72 ± 0.96 h	4.51 ± 0.3 h	4.05 ± 0.54 h	4.55 ± 0.22 h	2.93 ± 0.082 h	5.337 ± 0.019 h	9.34 ± 0.37 h	4.72 ± 0.21 h	9.53 ± 2.4 h	4.41 ± 0.37 h	8.96 ± 0.53 h
MFKEIFTRLIRHLPSRLVHRDPLPGAQQTVNTVVPPSLSAHCLKMAVMPEEELWKTFDTHPEGLNQAEVESAREQHGENKLPAQQPSPWWVHLWVCYRNPFNILLTILGAISYATEDLFAAGVIALMVAISTLLNFIQEARSTKAADALKAMVSNTATVLRVINDKGENGWLEIPIDQLVPGDIIKLAAGDMIPADLRILQARDLFVAQASLTGESLPVEKAATTRQPEHSNPLECDTLCFMGTTVVSGTAQAMVIATGANTWFGQLAGRVSEQESEPNAFQQGISRVSMLLIRFMLVMAPVVLLINGYTKGDWWEAALFALSVAVGLTPEMLPMIVTSTLARGAVKLSKQKVIVKHLDAIQNFGAMDILCTDKTGTLTQDKIVLENHTDISGKTSERVLHSAWLNSHYQTGLKNLLDTAVLEGTDEESARSLASRWQKIDEIPFDFERRRMSVVVAENTEHHQLVCKGALQEILNVCSQVRHNGEIVPLDDIMLRKIKRVTDTLNRQGLRVVAVATKYLPAREGDYQRADESDLILEGYIAFLDPPKETTAPALKALKASGITVKILTGDSELVAAKVCHEVGLDAGEVVIGSDIETLSDDELANLAQRTTLFARLTPMHKERIVTLLKREGHVVGFMGDGINDAPALRAADIGISVDGAVDIAREAADIILLEKSLMVLEEGVIEGRRTFANMLKYIKMTASSNFGNVFSVLVASAFLPFLPMLPLHLLIQNLLYDVSQVAIPFDNVDDEQIQKPQRWNPADLGRFMIFFGPISSIFDILTFCLMWWVFHANTPETQTLFQSGWFVVGLLSQTLIVHMIRTRRVPFIQSCASWPLMIMTVIVMIVGIALPFSPLASYLQLQALPLSYFPWLVAILAGYMTLTQLVKGFYSRRYGWQ [P0ABB8]	6.31 h	6.68 ± 0.68 h	6.44 ± 0.53 h		5.89 ± 0.47 h		6.91 ± 0.4 h	14.8 ± 0.69 h	6.72 ± 0.55 h	14.4 ± 1.3 h	6.71 ± 0.3 h	
